Molecular target: T1, GST-Ppc89(545-687) (S. pombe, UniProt Q10218 545-687)
T1 sequence (looked up): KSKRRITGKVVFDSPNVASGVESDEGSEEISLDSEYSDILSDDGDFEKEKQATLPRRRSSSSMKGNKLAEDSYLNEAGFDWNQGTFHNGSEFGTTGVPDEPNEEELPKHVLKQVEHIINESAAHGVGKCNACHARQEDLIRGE
Assay: pull-down; 10 µg GST-Ppc89 bound to GST beads, blocked with 5% BSA, 10 µg MBP-Sid4 added, 30 min at 4°C in GST-bind buffer (4.3 mM sodium phosphate pH 7.3, 137 mM NaCl, 2.7 mM KCl, 1 mM DTT, 0.1% NP-40); washes up to 300 mM NaCl; SDS-PAGE, Coomassie blue
Details: both partners purified

binding result: binds
B1: MBP-Sid4(546-660) (domain or fragment, S. pombe, UniProt O60187 546-660, looked up)
chain: SQPLTSLNMPDSRFNLAKEKQLYYRLGLQHIDQQCSVETANMLKTVLVQLNIPFAIFPSTIGQVRRQLQQGRRLYQWARNIHYLIYEENMRDGLVSKQCLADMLKKIRELKKRSL
notes: Sid4, S. pombe, 660 aa, residues 546-660 (predicted α-helices 7-11); source: Rosetta2(DE3)pLysS bacteria, purified (amylose resin)

Source: PMC11708228, “New mutations in the core Schizosaccharomyces pombe spindle pole body scaffold Ppc89 reveal separable functions in regulating cell division” (G3: Genes | Genomes | Genetics, 2024)
